Results taken from US6288042.

Target: HIV-1 integrase wild-type (IN1-288) (Human immunodeficiency virus 1) (UniProt P04585)
Experiment: inhibition
Conditions: I = deoxyinosine; PS at first and last linkage; 3'-processing column as printed; strand transfer column 0.070

IGGIIGGIIGGIIGGI [T30721]
IC50: 0.088 µM
